From patent US20230190867A1 (BIOINCEPT, published 2023)
No end group written: not given here.

Columns and labels:
Assay in all cases: PIF-agarose affinity extraction, liver lysate column of Table 4
[1] = target: 40S ribosomal protein S3a (human, UniProt P61247 2-264)
[2] = target: Eukaryotic initiation factor 4A-I (human, UniProt P60842 2-406)
Isoform 2 of Protein SET = Isoform 2 of Protein SET (human, UniProt Q01105-2 2-277)

Measured: binding result

Sequence of Eukaryotic initiation factor 4A-I (P60842 2-406 limits assumed): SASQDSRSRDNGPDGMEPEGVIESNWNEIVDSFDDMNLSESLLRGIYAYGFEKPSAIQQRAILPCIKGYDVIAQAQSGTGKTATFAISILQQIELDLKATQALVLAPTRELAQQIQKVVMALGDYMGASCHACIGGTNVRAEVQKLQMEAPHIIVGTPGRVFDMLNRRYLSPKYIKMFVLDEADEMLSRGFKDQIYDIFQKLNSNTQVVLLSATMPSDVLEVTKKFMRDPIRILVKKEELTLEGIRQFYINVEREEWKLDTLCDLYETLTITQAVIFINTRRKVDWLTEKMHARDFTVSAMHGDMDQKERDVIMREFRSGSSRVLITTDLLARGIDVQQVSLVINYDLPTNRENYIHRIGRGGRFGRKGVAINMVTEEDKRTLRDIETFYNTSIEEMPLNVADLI
Sequence of Isoform 2 of Protein SET (Q01105 other isoform, or with tags, fused parts or gaps limits assumed): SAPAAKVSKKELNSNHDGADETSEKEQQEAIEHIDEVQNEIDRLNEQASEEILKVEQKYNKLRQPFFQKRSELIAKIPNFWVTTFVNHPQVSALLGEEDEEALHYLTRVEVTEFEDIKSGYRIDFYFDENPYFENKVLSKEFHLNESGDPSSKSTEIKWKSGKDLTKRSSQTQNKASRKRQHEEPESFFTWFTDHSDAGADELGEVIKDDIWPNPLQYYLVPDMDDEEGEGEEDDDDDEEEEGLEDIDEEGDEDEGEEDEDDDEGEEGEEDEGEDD

B1: sPIF-1(15) (peptide)
peptide: MVRIKPGSANKPSDD
modifications: also: coupled to agarose support
notes: also called synthetic preimplantation factor
binds: all assays above
